According to the supplement of paper PMC11136658:

Test system: peptide library, one residue held at a place counted from the Y acceptor
Assay: relative phosphorylation of the sub-library (ratio to the mean residue at this position); higher = residue favoured
Method in brief: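 Every value reflects phosphorylation relative to the mean randomized residue. The sum of the 18 randomized residues, or 16 in the Ser/Thr-free library, served to normalize intensities at each position, which were then multiplied by that number. Intensities came from phosphorimaging with ImageQuant of biotinylated Tyr-centred peptides captured on streptavidin membranes after 90 min with purified recombinant kinases and 50 μM ATP plus γ-32P-ATP.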

Chain of EPHA6, construct: aa683-end, human (Q9UF33 683-1036, looked up): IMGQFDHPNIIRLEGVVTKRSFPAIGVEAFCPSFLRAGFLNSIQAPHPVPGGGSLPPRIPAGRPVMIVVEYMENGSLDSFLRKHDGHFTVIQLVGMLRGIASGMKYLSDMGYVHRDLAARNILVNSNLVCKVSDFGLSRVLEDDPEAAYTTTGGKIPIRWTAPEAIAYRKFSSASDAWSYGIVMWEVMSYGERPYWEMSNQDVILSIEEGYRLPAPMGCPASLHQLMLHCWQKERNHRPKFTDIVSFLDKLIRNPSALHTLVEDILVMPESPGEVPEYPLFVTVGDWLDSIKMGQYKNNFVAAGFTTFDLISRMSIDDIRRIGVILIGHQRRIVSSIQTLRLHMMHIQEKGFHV
Chain of EPHB1, construct: aa613-881, human (P54762 613-881, looked up): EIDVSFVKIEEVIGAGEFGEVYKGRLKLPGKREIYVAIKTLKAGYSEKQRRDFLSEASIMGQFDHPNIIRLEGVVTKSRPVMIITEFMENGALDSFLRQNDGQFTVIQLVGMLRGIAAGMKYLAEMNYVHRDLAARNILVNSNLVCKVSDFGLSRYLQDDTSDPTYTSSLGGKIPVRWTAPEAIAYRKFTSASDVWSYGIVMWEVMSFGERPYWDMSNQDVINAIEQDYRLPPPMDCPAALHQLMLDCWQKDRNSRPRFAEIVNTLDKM
Chain of EPHB2, construct: aa611-893, human (P29323 611-893, looked up): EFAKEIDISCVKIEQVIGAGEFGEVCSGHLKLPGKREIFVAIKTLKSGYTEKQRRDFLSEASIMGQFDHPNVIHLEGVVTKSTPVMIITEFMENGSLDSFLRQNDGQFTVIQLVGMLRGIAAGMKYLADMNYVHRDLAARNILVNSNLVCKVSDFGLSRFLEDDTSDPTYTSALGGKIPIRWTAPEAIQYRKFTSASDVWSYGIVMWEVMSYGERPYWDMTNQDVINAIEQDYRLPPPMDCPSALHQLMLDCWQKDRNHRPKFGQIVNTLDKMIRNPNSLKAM
Chain of EPHB3, construct: aa623-907, human (P54753 623-907, looked up): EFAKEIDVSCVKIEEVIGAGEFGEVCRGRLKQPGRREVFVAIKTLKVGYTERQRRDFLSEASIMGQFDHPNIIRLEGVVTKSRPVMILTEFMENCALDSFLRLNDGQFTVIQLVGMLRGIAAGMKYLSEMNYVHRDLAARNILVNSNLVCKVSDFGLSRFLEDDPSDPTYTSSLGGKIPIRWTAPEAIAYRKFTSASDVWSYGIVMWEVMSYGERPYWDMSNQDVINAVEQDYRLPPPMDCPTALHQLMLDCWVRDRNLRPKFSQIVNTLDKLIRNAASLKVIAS

EPHA6, construct: aa683-end, human (from UniProt Q9UF33)
relative phosphorylation
Details	at +1	at +2	at +3	at +4	at +5	at -1	at -2	at -3	at -4	at -5
A fixed	1.7	0.891	0.971	1.03	0.87	0.838	1.39	0.94	1.57	1.47
D fixed	0.944	1.3	0.585	0.688	0.91	2.67	1.15	1.18	0.754	0.894
E fixed	2.3	1.3	0.541	0.818	0.966	1.73	1.22	1.36	1.03	0.788
F fixed	0.862	1.19	0.94	1.06	1.12	0.701	0.668	1.09	0.859	0.811
G fixed	0.699	0.438	0.61	1.12	0.966	0.427	0.758	0.853	1.27	1.22
H fixed	0.72	1.13	1.03	1.15	1.24	0.733	0.886	1.01	0.973	1.21
I fixed	1.02	0.984	1.93	1	0.811	1.92	0.966	1.5	1.3	0.707
K fixed	0.62	1.03	0.901	1.06	1.04	0.593	1.17	0.842	0.944	1.15
L fixed	0.792	0.964	1.56	0.86	0.92	1.29	1.07	0.873	0.847	0.703
M fixed	1.08	0.917	1.26	0.988	0.955	0.737	0.85	0.943	0.881	0.802
N fixed	0.649	1.04	0.522	0.74	0.947	1.61	0.922	0.818	0.754	0.982
P fixed	0.352	0.594	1.05	1.29	1.03	0.504	1.2	0.876	1.15	1.03
Q fixed	1.31	0.779	0.716	0.882	0.942	0.535	1.02	0.735	0.942	0.998
R fixed	0.916	1.3	1.06	1.27	1.09	0.63	1.3	1.01	1.05	1.45
S fixed	0.808	0.748	0.684	0.848	0.993	0.535	1.21	0.951	0.826	0.949
T fixed	0.678	0.703	0.673	0.794	0.979	0.798	0.84	0.893	0.755	0.91
V fixed	1.54	1.06	1.64	1.08	0.85	1.2	0.781	1.11	1.2	0.954
W fixed	1	1.64	1.32	1.32	1.36	0.528	0.605	1.01	0.894	0.981
pThr fixed	1.37	1.63	0.624	0.561	0.816	2.9	1.03	0.842	0.799	0.686
pTyr fixed	1.48	3.8	0.659	0.576	1.01	2.12	0.946	0.911	0.73	0.677

EPHB1, construct: aa613-881, human (from UniProt P54762)
relative phosphorylation
Details	at +1	at +2	at +3	at +4	at +5	at -1	at -2	at -3	at -4	at -5
A fixed	1.86	0.98	0.818	0.902	1.1	0.664	1.16	0.857	0.999	0.906
D fixed	0.907	1.01	0.511	1.08	1.13	2.22	1.09	1.22	1.23	1.15
E fixed	2.33	1.18	0.427	1.04	1.06	1.2	1.27	1.34	1.26	1.01
F fixed	0.676	1.14	1.37	1.06	1.13	1.19	0.677	1.31	1.19	1.07
G fixed	0.571	0.414	0.575	1.03	1.05	0.223	1.23	0.898	1.15	0.979
H fixed	0.566	0.769	1.39	1.18	0.938	0.762	0.888	1.05	0.872	0.934
I fixed	1.67	1.36	2.18	0.773	0.815	2.09	0.872	0.944	0.907	0.956
K fixed	0.212	0.585	0.29	0.744	0.784	0.264	0.946	0.631	0.931	1.05
L fixed	0.823	1.04	1.37	0.828	1.08	1.95	0.914	1.02	1.07	1.11
M fixed	1.48	0.935	1.19	1.07	1.01	0.95	0.689	0.874	0.872	0.926
N fixed	0.383	0.951	0.731	0.806	0.856	1.81	1.05	1.03	0.844	1.13
P fixed	0.195	0.858	0.899	1.29	1.49	0.436	1.33	1.2	1.21	0.947
Q fixed	1.22	0.982	0.849	1.07	0.94	0.423	1.13	0.835	1.19	1.13
R fixed	0.252	0.768	0.419	0.835	0.782	0.29	0.905	0.672	0.9	1.01
S fixed	0.934	0.981	0.691	0.94	0.972	0.519	1.3	0.923	0.722	0.841
T fixed	0.868	1.02	0.848	0.939	0.938	0.968	0.917	0.844	0.667	0.757
V fixed	1.83	1.56	1.95	0.911	0.876	1.24	0.912	0.928	0.854	0.949
W fixed	1.22	1.45	1.49	1.5	1.05	0.811	0.714	1.42	1.14	1.15
pThr fixed	1.9	1.95	0.439	1.03	0.655	1.58	0.851	0.856	0.945	1.02
pTyr fixed	1.56	3.38	0.718	1.1	0.883	1.69	0.936	1.13	1.12	1.25

EPHB2, construct: aa611-893, human (from UniProt P29323)
relative phosphorylation
Details	at +1	at +2	at +3	at +4	at +5	at -1	at -2	at -3	at -4	at -5
A fixed	1.72	0.968	0.884	0.898	1.16	0.485	1.16	0.764	1.06	1.02
D fixed	1.17	1.15	0.473	1.11	1.01	2.48	1.32	1.45	1.35	1.24
E fixed	2.89	1.54	0.434	1.07	1.06	1.55	1.47	1.76	1.28	0.996
F fixed	0.59	1.27	1.36	0.922	0.937	0.938	0.635	1.33	1.11	0.972
G fixed	1.1	0.438	0.65	1.2	1.18	0.224	1.17	0.845	1.28	1.05
H fixed	0.443	0.626	1.29	1.1	0.998	0.494	0.825	0.807	0.872	0.921
I fixed	1.23	1.39	1.72	0.817	0.889	2.02	0.77	1	0.898	0.905
K fixed	0.166	0.428	0.273	0.699	0.691	0.207	0.791	0.522	0.784	0.995
L fixed	0.752	0.958	1.31	0.864	1.06	1.85	0.769	0.927	0.963	0.946
M fixed	1.33	0.838	1.19	1.09	0.934	0.759	0.674	0.919	0.868	0.942
N fixed	0.41	0.927	0.646	0.796	0.853	2.06	1.26	1.03	0.937	1.11
P fixed	0.171	0.732	1.27	1.16	1.46	0.343	1.33	0.945	1.09	1.19
Q fixed	1.2	0.882	0.762	0.976	0.868	0.502	1.17	0.933	1.25	1.12
R fixed	0.22	0.618	0.433	0.771	0.756	0.245	0.749	0.603	0.802	0.96
S fixed	0.992	0.953	0.769	1.03	1.11	0.47	1.43	0.968	0.898	0.88
T fixed	0.766	1.1	0.908	0.949	1.05	1.03	0.923	0.794	0.667	0.726
V fixed	1.77	1.78	1.92	1.02	0.934	1.48	0.878	0.928	0.851	0.957
W fixed	1.07	1.41	1.7	1.52	1.04	0.868	0.657	1.46	1.05	1.07
pThr fixed	1.64	1.98	0.439	0.858	0.64	1.77	1.05	0.962	0.894	0.877
pTyr fixed	1.75	4.02	0.872	1.28	1.1	2.15	1.15	1.12	1.04	1.12

EPHB3, construct: aa623-907, human (from UniProt P54753)
relative phosphorylation
Details	at +1	at +2	at +3	at +4	at +5	at -1	at -2	at -3	at -4	at -5
A fixed	1.96	0.847	0.837	0.853	0.843	0.583	1.21	0.804	1.15	0.981
D fixed	1.06	0.993	0.442	1.06	1.14	2.09	1.04	1.04	1.03	0.921
E fixed	2.6	1.33	0.413	1.16	1.15	1.38	1.29	1.19	1.39	0.842
F fixed	0.588	1.38	1.31	1.04	0.656	1.03	0.661	1.39	1.09	1.16
G fixed	1.13	0.428	0.651	1.26	1.36	0.226	1.33	1.05	1.37	1.32
H fixed	0.573	0.91	1.57	1.19	1.12	0.638	0.9	1.05	0.899	0.933
I fixed	1.19	1.24	1.95	0.801	0.581	2.29	0.899	1.14	1.01	1.14
K fixed	0.211	0.576	0.297	0.737	1.02	0.234	0.841	0.61	0.898	0.992
L fixed	0.732	0.974	1.39	0.821	0.613	1.87	0.83	0.912	0.959	0.98
M fixed	1.14	0.913	1.29	0.984	0.927	0.849	0.709	0.928	0.854	0.9
N fixed	0.393	1.01	0.653	0.856	1.1	2.4	1.12	1.09	0.922	1.08
P fixed	0.157	0.739	1.26	1.54	1.46	0.415	1.32	1.12	1.06	1.06
Q fixed	1.31	0.954	0.799	1.01	1.07	0.406	1.18	0.837	1.11	0.989
R fixed	0.278	0.768	0.468	0.855	1.32	0.239	0.896	0.722	0.84	1.03
S fixed	1	0.886	0.689	0.8	1.2	0.516	1.3	1	0.82	0.869
T fixed	0.903	0.989	0.796	0.865	1.16	1.03	0.96	0.942	0.762	0.761
V fixed	1.64	1.29	1.7	0.814	0.552	1.1	0.848	0.874	0.777	0.795
W fixed	1.12	1.77	1.49	1.36	0.723	0.697	0.672	1.31	1.05	1.26
pThr fixed	1.34	1.82	0.32	0.825	0.763	1.63	0.847	0.897	0.873	0.831
pTyr fixed	1.5	3.93	0.629	0.894	0.978	1.79	1.05	1.06	1.06	0.83
